Experimental data as given in the DeepSol protein solubility set.

assay: soluble on expression in E. coli; label from the status in PepcDB or PDB records

| Sequence | soluble on expression in E. coli |
| --- | --- |
| MSLAEPLTVSPELTANYAYFFDLDGTLAEIKPHPDQVVVPHKILQLLDRLAAHNAGALALISGRSMTELDALAKPFRFPLAGVHGAERRDISGKTHIVRLPEAVVREVEALLRSTLAALPGTELETKGMAFALHYRQAPEHEAALLALAQHVTQHWPQLALQPGKCVVEIKPKGTNKGEAIAAFMQEAPFTGRIPVFVGDDLTDEAGFGVVNHAGGISVKVGVGATQAAWRLESVPDVWRWLEQINYPQQEQQVMNNRRDGYESFSRSIEGHHHHHH | soluble |
| AHDNVVIFGDSMVADPLVSEVITGRLSSQPHCPHSPTSYAEIAAKRLGLESRNFSCAGAQVHIGGPFLKTSFIAQIDTAIAAGALDTHTRRVWITQGFNDAWSGHPAAQVVATMSEVIGRIRAHAPNARIQIVGYPQITHQGQLCLVR | not soluble |
| FFSGLFQRKSDAPVTTPAELADAIGLSYDTYTGKQISSQRAMRLTAVFSCVRVLAESVGMLPCNLYHLNGSLKQRATGERLHKLISTHPNGYMTPQEFWELVVTCLCLRGNFYAYKVKAFGEVAELLPVDPGCVVYALGRCQRWPEGDRRECYSAR | soluble |
| AVSLDRTRAVFDGSEKSMTLDISNDNKQLPYLAQAWIENENQEKIITGPVIATPPVQRLEPGAKSMVRLSTTPDISKLPQDRESLFYFNLREIPPRSEKANVLQIALQTKIKLFYRPAAIKTRPNEVWQDQLILNKVSGGYRIENPTPYYVTVIGLGGSEKQAEEGEFETVMLSPRSEQTVKSANYNTPYLSYINDYGGRPVLSFICNGSRCSVKKEKHHHHHH | soluble |
| MAHQYPSWIFINEKTFITREQLNSLLKTYNIFYENQKNLHILYGETEDGKLIVEGMLDIFWGVKRPIQLKIQDEKPFSSFTSMKSSDVFSSKGMTRWGEFDDLYRISELDRTQIPMSEKRNSQEDYLPYHSNTLKPHAKDEPDSPVLYRTMSEAALVRKRMKPLMMDRKERQKNRASINGHFYNHEIENSPQDFALHIIFATGEQRRLKKTDIPLLQRLLQGPSEKNARIFLMDKDAEEISSDVAQYINFHFSLLESILQRLNEEEKREIQRIVTKFNKEKAIILKCLQNKLVIKTETTV | not soluble |
| SGWRSSVSRSLRPETSCDRPSSHLRNMDVNMAAELSPTNSSSSGELSVSPEPPRETQAFLGKVTVIDYFTFQHKHLKVTNIDDMTETLYVKLPENMTRCDHLPITCEYLLGRGSYGAVYAHADNATVKLYDSVTELYHELMVCDMIQIGKATAEDGQDKALVDYLSACTSCHALFMPQFRCSLQDYGHWHDGSIEPLVRGFQGLKDAVYFLNRHCGLFHSDISPSNILVDFTDTMWGMGRLVLTDYGTASLHDRNKMLDVRLKSSKGRQLYRLYCQREPFSIAKDTYKPLCLLSKCYILRGAGHIPDPSACGPVGAQTALRLDLQSLGYSLLYGIMHLADSTHKIPYPNPDMGFDRSDPLYFLQFAAPKVVLLEVLSQMWNLNLDMGLTSCGESPCVDVTAEHMSQFLQWCRSLKKRFKESYFFNCRPRFEHPHLPGLVAELLADDFFGPDGRRG | soluble |
| MLFQNVSIAGLAHVDAPHTLTSKEINGRLQPTYDRLGIKTDVLGDVAGIHARRLWDQDVQASDAATQAARKALIDAGIGIEKIGLLVNTSVSRDYLEPSTASIVSGNLGVGDHCVTFDVANACLAFINGMDIAARMLERGEIDYALVVDGETANLVYEKTLERMTSPDVTEEEFRNELAALTLGCGAAAMVMARTELVPDAPRYKGGVTRSATEWNKLCRGNLDRMVTDTRLLLIEGIKLAQKTFLAARQVLGWAVDELDQFVIHQVSRPHTAAFVKSFGIDPAKVMTIFGEHGNIGPASVPIVLSKLKELGRLKKGDRIALLGIGSGLNCSMAEVVW | soluble |
| MPIKVGINGFGRIGRMVFQALCEDGLLGTEIDVVAVVDMNTDAEYFAYQMRYDTVHGKFKYEVTTTKSSPSVAKDDTLVVNGHRILCVKAQRNPADLPWGKLGVEYVIESTGLFTAKAAAEGHLRGGARKVVISAPASGGAKTLVMGVNHHEYNPSEHHVVSNASCTTNCLAPIVHVLVKEGFGVQTGLMTTIHSYTATQKTVDGVSVKDWRGGRAAAVNIIPSTTGAAKAVGMVIPSTQGKLTGMSFRVPTPDVSVVDLTFTAARDTSIQEIDAALKRASKTYMKGILGYTDEELVSADFINDNRSSIYDSKATLQNNLPKERRFFKIVSWYDNEWGYSHRVVDLVRHMASKDRSARL | soluble |
| MGSDKIHHHHHHMLLSMNRVSNPFRATLGSTPPYLAGRRHEIEDFAEALDDGPGAHERISLITGLRGVGKTVLLNAFEEEARARSWWVISETATAGFTERIIDALFRKASEILHTHRRKLSGITLPSIGGIQFSDILEHQPKITLRSVLTEILSWQEEIDRKLGQDSVGLLITLDELHYHRREEVIDFGATIQHLVREDLNISVAMAGIPQSIKPLLASEEGKNPVTFLRRANRIDLGLIDNNEVRKALAEPVEKVGVTWESDALTDAAEACGGYPFMIQLIGQQCFKRKRSNFITVGSVAEAAVVAKRKLGQLVHEPALADLSEVDRTFLVAMAADDGPSTMSDIAQRLGVNSQYAGNYRRRLIDAEIITSSGYGQVDFELPYMREYLREHAVVDVFKQ | not soluble |
| GMQATTATPHDIVFLFDCDNTLLDNDHVLADLRAHMMREFGAQNSARYWEIFETLRTELGYADYLGALQRYRLEQPRDTRLLLMSSFLIDYPFASRVYPGALNALRHLGARGPTVILSDGDVVFQPRKIARSGLWDEVEGRVLIYIHKELMLDQVMECYPARHYVMVDDKLRILAAMKKAWGARLTTVFPRQGHYAFDPKEISSHPPADVTVERIGDLVEMDAEWLLAEKR | soluble |
| LETSWIKPGQASWEWWNDAAPYGPDVNFVSGYNLETYKYYIDFASKYGIRYIIMDEGWAKSTRDPYTPNAKVDVHELIRYAEKKNVGIVLWLTWLTVENNMDLFKTFSEWGVKGVKIDFMDRSDQWMMNFYERVAAEAAKYKLFVDFHGSVSPKGLEYKYPNVLSYEGVRGMEQMGGATPDNSIFMPFMRNAVGAMD | not soluble |
| MTESDVDSGSKKYLSNHKGIFIHVTLEELKRYHQLTPEQKRLIRAIVKTLIHNPQLLDESSYLYRLLASKAISQFVCPLCLMPFSSSVSLKQHIRYTEHTKVCPVCKKEFTSTDSALDHVCKKHNICVS | soluble |
| MGSDKIHHHHHHMKYLPLYPILARYPFLRIASRVFSFNIEDELRKFLDTVEAAKRIVDKAIDGRVEYDRFTDESEFFCLGCEENCYDCQKRGTLEGCDLCMGCFENCSLYYPREAVERFYTNAKLSLLTYIASRMIVSAMEDWVRMRYAVNEASYYSRLLREDVEESGKEPIVRLVAIDLGAKLKGWKMHVSTFVRVSARIKDDKWRLVNRKLRNGWVETTKAEVLRGLEELLRMKLFEKVPVSEAVSEAVRELSRKAKRESEKFAMDLGEVDLNCLPPCMREILSELQRGMNIPHTARFAITSFLLNIGMTVDEIIALFKSAPDFDDEKTRYQVEHIAGERGKGAEYTSPSCDTMRTYSNCVADCRVSHPLIYYKKCKSKS | not soluble |
| MVDVVMAPCSPVECRTAVVIDVLRATSTIVTALSNGASGVIPVKTIEEALEKKKEGVLICGERNAQKPKGFNLGNSPLEYRKEKISGKTIVLTTTNGTQVIEKIRSEEIIAASFLNLSAVVEYLKSKEDILLVCAGTNGRFSLEDFLLAGAIVKRLKRNDLGDGAHAAERYFESVENTREEIKKHSSHAKRLISLGFENDIEFCTTEDLFKTVPALVNGVFILKEFP | soluble |
| MEREKLELPENGKKLLLHSCCAPCSGEVMEAIVASGIDFSIFFYNPNIHPRKEYDLRKDENIRFAEKHGIPFIDADYDMDDWFKRAKGMEMEPERGIRCTMCFDMRFERTALYAYENGFDVISSSLGISRWKNMDQINDSGVRAAAQYPGITYWTYNWRKKGGSARMLEISKREKFYMQEYCGCAYSLRDTNKWRVEHGREKIRIGEKYYGDVTE | not soluble |
| MGSDKIHHHHHHVFDALVIGSGPAGLAIAAELAQRGLKVQGLSPVDPFHPWENTYGIWGPELDSLGLEHLFGHRWSNCVSYFGEAPVQHQYNYGLFDRAQLQQHWLRQCEQGGLQWQLGKAAAIAHDSHHSCVTTAAGQELQARLVVDTTGHQAAFIQRPHSDAIAYQAAYGIIGQFSQPPIEPHQFVLMDYRSDHLSPEERQLPPTFLYAMDLGNDVYFVEETSLAACPAIPYDRLKQRLYQRLATRGVTVQVIQHEEYCLFPMNLPLPDLTQSVVGFGGAASMVHPASGYMVGALLRRAPDLANAIAAGLNASSSLTTAELATQAWRGLWPTEKIRKHYIYQFGLEKLMRFSEAQLNHHFQTFFGLPKEQWYGFLTNTLSLPELIQAMLRLFAQAPNDVRWGLMEQQGRELQLFWQAIAAR | not soluble |
| MAAPVDLELKKAFAELQAKMVDTQQKVKLADLQIEQLSRVKKHANLTHGEITSLPESTRMFEGAGRMFILQSKGEISNQLLEKQKTADDKIKELEQKKTYLERSVKDAEDNIREMLMSRRAQ | not soluble |
| MIVSWRHKGLKAFFETGSSSGIRADHSKRLAHVLAVLNRARTPANVNMPGWRLHPLKGELEGFWSITINANWRIIFRFFDTDVELVDYLDYH | not soluble |
| MSLINAGITTVGEFHYVHHSEQKFDLDQLVIQAAIDAGIRIVLLQTLYERAGFDSPAVHPVQERFIASYEDFIGNLEKLRKEKTHERVQIGVAAHSARAVPFENIKKLFEYASEHKIPFHIHLEEQPKEIFDCQKFIGQKQGPSDLILSKMHLNEYFTAVHSTFTPANNMLLFSKLGANVSICPCTEGYLGDGIPRINESLKISFGTDCNNRICFLEEMRWACFSQQMLNNSRSVCGLSPEKLLLCATIDGARALSLTSKTGSLEVGKYFDAISFSLDSPLLENSLADTLIDSLVLSAGNREISNVFVSGVDRKTEGHHHHHH | not soluble |
| MGSDKIHHHHHHMNKTVDMTVNTIYLVGGGKGGVGKSVVALALVDHLQRRGVNTVLVENDTSNPDVMRAVHEEIACASFDLDTAGGWIDMVNYCDGHRDAVVVVSTAARNQDGVTRYGATLGSTLDELGRRLVVFWVINRQRDSLELLRQFSETFPDATVHVVRNGYYGAPERFVLYQDSKLRKSIEAKGRSLDFPELADRVADDLRSHRLSVRKAVETLPIGQRAELLRWRACYDAMFSQVTDDA | not soluble |
| MSNQSKLNSAAYDQLNKDADRILHLIKVQMDNLTLPSCPLYEEVLDTQMFGLQKEVDFAVQLGLVDKEDGKQLMLRLEKELSKLHEAFTNV | not soluble |
| MDPVRILRHLITGQSAIKRAFPPATLTVIEQAIAHSETLHGGEIVFAVEASLDLPLLLQNQIIRERAIDVFSLLRVWDTEHNNGVLIYLLMADHDVEIVADRGIHTKVDQTIWETACDTMKTTFRHGQFEQGVLAGIDLSTRVLQQFFPASTGKRKSELPDRPVVLLEHHHHHH | not soluble |
| GPGSMWRITRLCCKQLIRDESLVSLPPAVHRLEVYRNAVSVDCEERICAELGLLLQREGHTAFAEGSTPQQKIVKHTYLELHGAHKDFTEVKSFQRKETRRLPGLLWSPTLVSWMNEVVPRVRVFPVGVMPDTARVVEHNMTGYEMHMEHPTVGCSFLYLSLLSDTVLTFDDEATGRYGEVFLPQRALMCCSGEIRWGWRFGEQSREVHTFVNASGVRRVVEPDLRLSVQLWKFTPQLLDARLLQDRVEESMKQREAEESNEVVETIAVDRKKNEEEHKGSASSHALFSALAEKGASGTGPLGGEYVEGRTQACKGVEGKSMTMEDIGRDYNTYKQQFQNVHGVLQEMKALQDAGQPINDMWLRKRILDGQKDDNHDAQDGFDPNDVEGTWDRVDAKARFYKARLKGMDYDGTANSNSSMPDVTEDAPLDMKKTIQKIAPLVKDGDKILASLPCGQ | not soluble |
